Reference: publication doi:10.1101/2023.06.17.545410 (bioRxiv, 2023)

Molecular target: T1, HsTHUMPD2 (purified) (human, UniProt Q9BTF0-1 1-503)
T1 sequence (looked up): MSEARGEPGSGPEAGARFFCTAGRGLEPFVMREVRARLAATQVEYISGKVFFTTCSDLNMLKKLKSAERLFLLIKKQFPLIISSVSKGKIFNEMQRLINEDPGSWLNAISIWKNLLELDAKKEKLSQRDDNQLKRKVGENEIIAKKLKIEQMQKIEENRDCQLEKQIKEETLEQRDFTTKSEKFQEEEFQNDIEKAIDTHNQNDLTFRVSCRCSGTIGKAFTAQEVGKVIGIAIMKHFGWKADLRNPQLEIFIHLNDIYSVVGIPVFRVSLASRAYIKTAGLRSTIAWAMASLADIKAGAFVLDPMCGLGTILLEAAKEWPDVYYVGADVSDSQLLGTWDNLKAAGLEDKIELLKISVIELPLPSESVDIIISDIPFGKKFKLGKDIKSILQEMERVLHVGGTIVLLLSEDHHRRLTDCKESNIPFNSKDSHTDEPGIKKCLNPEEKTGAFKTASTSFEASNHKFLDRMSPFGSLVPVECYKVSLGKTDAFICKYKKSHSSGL
Experiment: SEC

B1: HsTRMT112 (purified) (natural protein, human, UniProt Q9UI30-1 1-125, looked up)
chain: MKLLTHNLLSSHVRGVGSRGFPLRLQATEVRICPVEFNPNFVARMIPKVEWSAFLEAADNLRLIQVPKGPVEGYEENEEFLRTMHHLLLEVEVIEGTLQCPESGRMFPISRGIPNMLLSEEETES
  binding result: binds
